Reference: US20190033318A1 (UNIVERSITY OF SOUTHAMPTON, published 2019)
Starred links: 1 amine or outer side, 2 acyl side, 3 side chain; linkers in the order of their positions; H or OH if unused. Non-standard residues stand in square brackets, D forms with d. Tyr(Me) = 4-methoxyphenylalanine (O-methyl-tyrosine), COc1ccc(C[C@H](N[*:1])C(=O)[*:2])cc1; FITC‑maleimide = fluorescein isothiocyanate-maleimide label on the cysteine; Tyr(3-NO2) = N[C@@H](Cc1ccc(O)c([N+](=O)[O-])c1)C(=O)O; Phe(4-NO2) = N[C@@H](Cc1ccc([N+](=O)[O-])cc1)C(=O)O; Phe(4-CN) = N#Cc1ccc(C[C@H](N)C(=O)O)cc1; Phe(4-Cl) = N[C@@H](Cc1ccc(Cl)cc1)C(=O)O; Phe(4-F) = N[C@@H](Cc1ccc(F)cc1)C(=O)O; Phe(4-Me) = Cc1ccc(C[C@H](N)C(=O)O)cc1; Cha = N[C@@H](CC1CCCCC1)C(=O)O; Pal = not defined here

Legend:
[1] = biological target: T1, 2α PASB (HIF-2α PASB domain, 240-350) (UniProt Q99814 240-350, labelled with NT-647-NHS dye in MST; 15N (and 13C 15N) labelled in NMR); experiment: MST, HIF-2α PASB domain
T1 construct: range 240-350; also called PAS B domain of HIF-2α; not shown: His6 tag of vector pET28, then Met
T1 sequence (Q99814 240-350): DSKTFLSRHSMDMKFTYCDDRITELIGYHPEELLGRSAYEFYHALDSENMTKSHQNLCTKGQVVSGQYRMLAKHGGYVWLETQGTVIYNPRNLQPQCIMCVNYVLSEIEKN

[2] = biological target: T2, 1α PASB (HIF-1α PASB domain, 238-349) (UniProt Q16665 238-349, labelled with NT-647-NHS dye in MST); experiment: MST, HIF-1α PASB domain
T2 construct: range 238-349; not shown: His6 tag of vector pET28, then Met

[3] = biological target: T3, HIF-1α (construct not given) (UniProt Q16665 1-350, limits assumed); experiment: HIF-1 ELISA, inhibition of HIF-1α/HIF-1β dimerisation
T3 construct: also called HIF-1 ELISA
Procedure: (§1) 25 μL of His-tagged HIF-α protein (either Trx-1α, Trx-2α, 1α PASB, or 2α PASB) at 0.1 μM in HIF assay buffer were added to individual wells of a Pierce Ni²⁺-coated 96-well plate (Thermo) in triplicate. The plate was rocked gently at room temperature for 1 hr, before washing with 3×200 μL assay buffer (5 min incubation per wash). 25 μL of compounds and/or DMSO at the stated concentrations were added to the plate and allowed to equilibrate for 30 min prior to the addition of 25 μL of GST-1β at 0.2 μM in assay buffer for 1 hr. For conditions in which no compound or DMSO were used, GST-1β was added as a 0.1 μM solution. After incubation with GST-1β, the wells were washed with 3×200 μL assay buffer then 1×200 μL PBS. The wells were then incubated with 100 μL mouse α-GST antibody (Thermo, MS-707-P) at a 1/1000 dilution in PBS supplemented with 0.1% Tween-20 (PBST) and 2% non-fat powdered milk (Marvel) for 1 hr, followed by 3×200 μL washed with PBS. 100 μL of secondary HRP-conjugated α-mouse antibody (GE Healthcare) was added at a 1/6000 dilution in 2% milk/PBST for 1 hr, then washed with 3×200 μL PBS. Wells were incubated with 100 μL of 1-Step Ultra TMB-ELISA solution (Thermo) until a blue colour developed (typically 10-15 min) and the reaction was stopped by the addition of 100 μL of a ⅕ dilution of conc. H₂SO₄, which turned the solution yellow. Absorbance was read at 450 nm using a Tecan Infinite M200 Pro plate reader. Data were fitted and IC₅₀ values determined by non-linear regression using GraphPad Prism 6.

[4] = biological target: T4, HIF-2α (construct not given) (UniProt Q99814 1-360, limits assumed); experiment: HIF-2 ELISA, inhibition of HIF-2α/HIF-1β dimerisation
T4 construct: also called HIF-2 ELISA
T4 sequence (Q99814 1-360 limits assumed): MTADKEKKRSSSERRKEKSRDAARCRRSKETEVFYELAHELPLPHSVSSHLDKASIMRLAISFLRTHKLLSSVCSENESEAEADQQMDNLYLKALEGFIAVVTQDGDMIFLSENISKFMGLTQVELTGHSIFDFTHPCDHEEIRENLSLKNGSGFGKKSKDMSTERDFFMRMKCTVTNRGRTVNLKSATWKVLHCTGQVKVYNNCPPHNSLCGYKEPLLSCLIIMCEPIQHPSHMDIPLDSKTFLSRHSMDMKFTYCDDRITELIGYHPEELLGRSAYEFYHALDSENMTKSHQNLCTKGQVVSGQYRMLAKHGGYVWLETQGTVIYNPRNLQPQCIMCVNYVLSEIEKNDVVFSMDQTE
Procedure: as §1

[5] = biological target: T4, HIF-2α (construct not stated at the …); experiment: as above; remark: listed apart in the source
[6] = biological target: T1, 2α PASB (HIF-2α PASB domain, 240-350); experiment: MST, peptide titrated into labelled PAS-B domain of HIF-2α
[7] = biological target: T2, 1α PASB (HIF-1α PASB domain, 238-349); experiment: MST, peptide titrated into labelled PAS-B domain of HIF-1α
[8] = biological target: T2, 1α PASB (HIF-1α PASB domain, 238-349); experiment: competition ELISA: 1α PASB on Ni plate, peptide titrated, blocked partner GST-1β; the value stands in the panel without a name, the ELISA fits give IC50; the fall is only partial
Procedure: as §1, with “Wells were incubated with 100 μL of 1-Step Ultra TMB-ELISA solution (Thermo) until a blue colour developed (typically 10-15 min) and the reaction was stopped by the addition of 100 μL of a ⅕ dilution of conc. H₂SO₄, which turned the solution yellow.” left out

[9] = biological target: T5, 1β PASB (HIF-1β PASB domain, 356-474) (UniProt P27540 356-474); experiment: thermal shift assay, 1 mM peptide
T5 construct: range 356-474; not shown: His6 tag of vector pET28
T5 sequence (P27540 356-474): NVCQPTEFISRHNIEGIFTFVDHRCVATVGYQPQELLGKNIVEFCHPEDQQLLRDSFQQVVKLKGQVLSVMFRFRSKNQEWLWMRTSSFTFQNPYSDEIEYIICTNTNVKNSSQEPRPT
Procedure: (§2) Thermal denaturation of HIF proteins was performed in 20 μL reactions in triplicate using a Bio-Rad CFX Connect Real-Time System. Proteins were used at either 5 μM (Trx-1α, Trx-2α and GST-1β) or 15 μM (His-tagged PASB domains) in HIF assay buffer, with 10 mM DTT and SYPRO orange dye (Life Technologies) at a final concentration of 8×(relative to 5000×stock), and supplemented with either DMSO or compound dissolved in DMSO at the stated concentrations. The reaction plate was assembled on ice, then transferred to the pre-chilled thermal cycler, held at 10° C. for 5 min (heated lid, 105° C.), then the temperature ramped to 95° C. Fluorescence was recorded at 0.5° C. increments, holding for 5 sec at each temperature. Data were plotted using GraphPad Prism 6, and melting temperatures calculated using the first derivative method in which the peak (i.e. the steepest transition between data points) represents the point at which 50% of the protein sample is denatured. Errors are quoted as the inherent error associated with the first derivative of the data, i.e. ±0.25° C. for Tₘ values and ±0.5° C. for ΔTₘ values.

[10] = biological target: T6, Trx-1α (thioredoxin-tagged HIF-1α 1-350, bHLH-PASA-PASB) (UniProt Q16665 1-350); experiment: thermal shift assay, 1 mM peptide
T6 construct: range 1-350; not shown: Thioredoxin-His6 tag of vector pET32
Procedure: as §2

[11] = biological target: T6, Trx-1α (thioredoxin-tagged HIF-1α …); experiment: competition ELISA: His-tagged Trx-1α on Ni plate, peptide titrated, binding of GST-1β (blocked partner) detected with anti-GST, A450
Procedure: (§3) IC₅₀ values for the compound=3.7 μM/8.8 μM for 1α/2α.
as §1, with “Wells were incubated with 100 μL of 1-Step Ultra TMB-ELISA solution (Thermo) until a blue colour developed (typically 10-15 min) and the reaction was stopped by the addition of 100 μL of a ⅕ dilution of conc. H₂SO₄, which turned the solution yellow.” left out

[12] = biological target: T2, 1α PASB (HIF-1α PASB domain, 238-349); experiment: MST, peptide titrated into fluorescently labelled 1α PASB
Procedure: (§4) Microscale thermophoresis (MST) was performed to determine Kd of peptide binding to fluorescently labelled HIF-1α/2α PASB domains.
(§5) 0.5 mL of 1α or 2α PASB protein stocks in HIF storage/assay buffer were dialysed against 1 L of MST labelling buffer (100 mM NaHCO₃ pH 8, 150 mM NaCl and 5% glycerol) for 1.5 hr at 4° C., then against 1 L of fresh labelling buffer at 4° C. overnight. 100 μL of each dialysed protein diluted to 10 μM were incubated with 100 μL of 30 μM NT-647-NHS dye (NanoTemper protein labelling kit) for 20 min in the dark, then exchanged into 650 μL HIF assay buffer supplemented with 0.05% Tween-20 using the supplied gravity flow purification columns. A dilution series of cyclo-CRVIIF (SEQ ID NO 4) or alanine scan analogues (in HIF assay buffer, 10% DMSO) was mixed with equal volumes of labelled 1α PASB or 2α PASB at 100 nM and allowed to equilibrate for 10 min. Samples were loaded into hydrophilic capillaries and, after optimising the power, MST was performed using a Monolith […] instrument (NanoTemper). Data were analysed using NT Analysis Software using the Temperature Jump analysis mode.

[13] = biological target: T1, 2α PASB (HIF-2α PASB domain, 240-350); experiment: thermal shift assay, 1 mM peptide
Procedure: as §2

[14] = biological target: T7, Trx-2α (thioredoxin-tagged HIF-2α 1-360, bHLH-PASA-PASB) (UniProt Q99814 1-360); experiment: thermal shift assay, 1 mM peptide
T7 construct: range 1-360; not shown: Thioredoxin-His6 tag of vector pET32
T7 sequence (Q99814 1-360): as the sequence (Q99814 1-360 limits assumed) above
Procedure: as §2

[15] = biological target: T2, 1α PASB (HIF-1α PASB domain, 238-349); experiment: thermal shift assay, 1 mM peptide
Procedure: as §2

[16] = biological target: T1, 2α PASB (HIF-2α PASB domain, 240-350); experiment: MST, peptide titrated into fluorescently labelled 2α PASB
Procedure: as §4, §5

[17] = biological target: T7, Trx-2α (thioredoxin-tagged HIF-2α …); experiment: competition ELISA: His-tagged Trx-2α on Ni plate, peptide titrated, binding of GST-1β (blocked partner) detected with anti-GST, A450
Procedure: as §3
as §1, with “Wells were incubated with 100 μL of 1-Step Ultra TMB-ELISA solution (Thermo) until a blue colour developed (typically 10-15 min) and the reaction was stopped by the addition of 100 μL of a ⅕ dilution of conc. H₂SO₄, which turned the solution yellow.” left out

Binder | Kd [1] | Kd [2] | IC50 [3] | IC50 [4] | also measured
cyclo(CRLLI[Pal]) (not fully specified; printed as CRLLI(Pal); reading uncertain, also called CRLLIX where X = Pal) [CRLLI(Pal)] | 45.3 µM | 69.2 µM | 294 µM | 212 µM | 
cyclo(C(FITC‑maleimide)KLIIF) [FITC-CKLIIF (SEQ ID NO 2)] |  |  |  |  | Activity as measured by a HIF-2 ELISA [5]: 0.77 µM
CRAIIF (also called alanine scan peptide of CRVIIF, position 3 (V to A)) |  |  |  |  | IC50 [8]: 51 µM
cyclo(CRLLI[Phe(4-F)]) (also called CRLLIX where X = 4-F-F) [CRLLI(4-F-F)] | 7.41 µM | 6.84 µM | 37.5 µM | 11.5 µM | 
cyclo(C(FITC‑maleimide)RLLIF) [FITC-CRLLIF (SEQ ID NO 3)] |  |  |  |  | Activity as measured by a HIF-2 ELISA [5]: 0.47 µM
SGWEMIQRR (cyclic peptide (first amino acid joined to the last), One of the 4 cyclic peptide hits) [cyclo-SGWEMIQRR (SEQ ID NO 5)] |  |  |  |  | ΔTm [9]: -0.5 ° C.; ΔTm [10]: -2.5 ° C.
cyclo(CRLLI[Tyr(3-NO2)]) (SMILES CC[C@H](C)[C@@H]1NC(=O)[C@H](CC(C)C)NC(=O)[C@H](CC(C)C)NC(=O)[C@H](CCCNC(=N)N)NC(=O)[C@H](CS)NC(=O)[C@H](Cc2ccc(O)c([N+](=O)[O-])c2)NC1=O, also called CRLLIX where X = 3-NO2-Y) [CRLLI(3-NO2-Y)] | 49 µM | 90.7 µM | 19.5 µM | 22.7 µM | 
CRLLIF (cyclic peptide (cyclo-, first amino acid joined to the last), One of the 4 cyclic peptide hits of the SICLOPPS screen; made by solid phase synthesis; also called CRLLIX where X = F) [cyclo-CRLLIF (SEQ ID NO 3)] | 15.4 µM | 36.9 µM | 71.3 µM | 98.3 µM | IC50 [11]: 102 µM; Kd [12]: 13.5 µM; ΔTm [9]: -1 ° C.; ΔTm [13]: -4 ° C.; ΔTm [10]: 0.5 ° C.; ΔTm [14]: -4 ° C.; ΔTm [15]: -2 ° C.; Kd [16]: 59.6 µM; IC50 [17]: 186 µM
CRLLIW (cyclic analogue of cyclo-CRLLIF) | 9.6 µM | 7.7 µM |  |  | 
cyclo(CRLLI[Phe(4-CN)]) (also called CRLLIX where X = 4-CN-F) [CRLLI(4-CN-F)] | 9.46 µM | 10 µM | 44.2 µM | 6.27 µM | 

More lines, main results first:

Kd [1] | Kd [2] | IC50 [3] | IC50 [4] | Binder | also measured
4.5 µM | 10.8 µM | 36.7 µM | 15.3 µM | cyclo(CRLLI[Tyr(Me)]) (SMILES CC[C@H](C)[C@@H]1NC(=O)[C@H](CC(C)C)NC(=O)[C@H](CC(C)C)NC(=O)[C@H](CCCNC(=N)N)NC(=O)[C@H](CS)NC(=O)[C@H](Cc2ccc(OC)cc2)NC1=O, also called CRLLIX where X = 4-MeO-F) [CRLLI(4-MeO-F)] | 
4.15 µM | 2.8 µM | 13.2 µM | 4.88 µM | cyclo(CRLLI[Phe(4-Cl)]) (also called CRLLIX where X = 4-Cl-F) [CRLLI(4-Cl-F)] | Kd [6]: 4.2 µM
5.27 µM | 9.61 µM | 11.9 µM | 6.07 µM | cyclo(CRLLI[Phe(4-Me)]) (also called CRLLIX where X = 4-Me-F) [CRLLI(4-Me-F)] | Kd [6]: 5.4 µM; Kd [7]: 11.4 µM
5.63 µM | 1.37 µM | 25.5 µM | 19.8 µM | cyclo(CRLLI[Cha]) (also called CRLLIX where X = Cha) [CRLLI(Cha)] | Kd [6]: 5.8 µM; Kd [7]: 4.1 µM
5.76 µM | 3.73 µM | 27.8 µM | 12 µM | cyclo(CRLLI[Phe(4-NO2)]) (also called CRLLIX where X = 4-NO2-F) [CRLLI(4-NO2-F)] | 
